To fix the notation:
T1: gTBP (GST-gTBP) (Giardia intestinalis WB C6 (ATCC 50803), UniProt E2RU70 1-200)
T1 sequence: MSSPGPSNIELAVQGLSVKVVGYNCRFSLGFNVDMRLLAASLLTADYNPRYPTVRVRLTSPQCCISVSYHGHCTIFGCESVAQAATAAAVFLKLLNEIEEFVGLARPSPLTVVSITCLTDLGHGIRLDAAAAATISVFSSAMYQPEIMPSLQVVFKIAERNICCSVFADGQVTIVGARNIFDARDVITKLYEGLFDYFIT

B1: H4 S1 (ssDNA)
DNA: ACACCCACCTGCTTCCTCTGCGCCCTTTCCCTCCAGCTTAGACCATCGCGTTCAT
B2: H4 S2 (ssDNA)
DNA: TACCTCACCTGCTTCTTCTTCGCGTTCCCTCCTCCAGCCCAAACTTGCGCCTCAT
B3: H4-b (ssDNA)
DNA: CATTTTTATTTGCCCCTTCCCGCGTCTTCTTTTTTAGCCCAAATCTGCGCCCTAC
B4: H2B-b (ssDNA)
DNA: ATTTCTTTCCCGCCCGCTTTTTCCCCCCTTCCGCAGCCGAAATCTGCGCCCCTGTGCACTTCTA
B5: H2B S2 (ssDNA)
DNA: CACCTTCTCAGCGACGCTTCCTCTTTCCCTAGCGACGTGTAACCACGCGATTTGTGCCATC
B6: H4-a (ssDNA)
DNA: GTAGGGCGCAGATTTGGGCTAAAAAAGAAGACGCGGGAAGGGGCAAATAAAAATG
B7: H2B-a (ssDNA)
DNA: TAGAAGTGCACAGGGGCGCAGATTTCGGCTGCGGAAGGGGGGAAAAAGCGGGCGGGAAAGAAAT
B8: aGN-a (ssDNA)
DNA: CAATTTGAGCTTCAAAAAATACCGCCAAAAAATGGCAATTCGGTTTTAAAAATG
B9: H2B S1 (ssDNA)
DNA: ACCCCTCCTTCGCTCGCTCCTTCCTTTCTCCCGCAGCCGAGACTTGCGCTTTACGTGATCC

The first series deals with T1, gTBP (GST-gTBP). The series can be described thus: competition; vs H2B-a and H4-a; annealed in Na+ and K+; 10 mM Tris-HCl pH 8.0, 0.15 M NaCl, 0.5 mM TCEP, 5% glycerol, 1 ug/ul BSA, 15 ng/ul salmon sperm DNA, 30 min on ice; probe 0.1 pmol/ul, competitor 200-fold excess. The following applies: protein: recombinant; tags: N-terminal GST.
Take GGGGTTTTGGGGTTTTGGGGTTTTGGGG (structured_DNA) [Oxytricha telomere (Oxy)]: the binding result is on record as “binds”.

Take TAGGGTAGGGTAGGGTAGGG (structured_DNA) [Giardia telomere (Gia)]: the binding result is “binds”.

On to GGGTTAGGGTTAGGGTTAGGGT (structured_DNA) [Human-1 telomere (Hu1)], for which the binding result is given as “binds”.

The target of the next series is T1, gTBP (GST-gTBP). The series can be described thus: competition; vs H2B-a probe; better than L; 10 mM Tris-HCl pH 8.0, 0.15 M NaCl, 0.5 mM TCEP, 5% glycerol, 1 ug/ul BSA, 15 ng/ul salmon sperm DNA, 30 min on ice; probe 0.1 pmol/ul, competitor 200-fold excess. The following applies: protein: recombinant; tags: N-terminal GST.
In the case of TAGAAGTGCACAGGGGGGCAGATTTCGGCTGC (ssDNA) [H2B-a L1], the binding result was “binds”.

Take CTGCGGAAGGGGGGAAAAAGCGGGCGGGAAAGAAAT (ssDNA) [H2B-a Right (R)]: the binding result is “binds”.

The target of the next series is T1, gTBP (GST-gTBP). As to the kind of experiment: competition; vs H4-b probe; 10 mM Tris-HCl pH 8.0, 0.15 M NaCl, 0.5 mM TCEP, 5% glycerol, 1 ug/ul BSA, 15 ng/ul salmon sperm DNA, 30 min on ice; probe 0.1 pmol/ul, competitor 200-fold excess. To be noted: protein: recombinant; tags: N-terminal GST.
Turning to B1, the binding result is reported as “binds”.

On to CCTTCCCGCGTCTTCTTTTTTAGCCCAA (ssDNA) [H4 C], for which the binding result is given as “binds”.

Turning to CATTTTTATTTGCCCCTTCCCGCGTCTT (ssDNA) [H4 L], the binding result is recorded as “binds”.

Take CTTTTTTAGCCCAAATCTGCGCCCTAC (ssDNA) [H4 R]: the binding result was “binds”.

For B2, the binding result is “binds”.

For the next series, the target named is T1, gTBP (GST-gTBP). As to the kind of experiment: competition; vs H2B-a probe; 10 mM Tris-HCl pH 8.0, 0.15 M NaCl, 0.5 mM TCEP, 5% glycerol, 1 ug/ul BSA, 15 ng/ul salmon sperm DNA, 30 min on ice; probe 0.1 pmol/ul, competitor 200-fold excess. The following applies: protein: recombinant; tags: N-terminal GST.
In the case of CTGCGGTTGGGGGGTTTTAGCGGGCGGGAAAGAAAT (ssDNA) [H2B-a R3], the binding result was “binds”.

Another series concerns the target T1, gTBP (GST-gTBP). As to the kind of experiment: EMSA; B1+B2 complexes; Hill n about 2; 10 mM Tris-HCl pH 8.0, 0.15 M NaCl, 0.5 mM TCEP, 5% glycerol, 1 ug/ul BSA, 15 ng/ul salmon sperm DNA, 30 min on ice; probe 0.1 pmol/ul, competitor 200-fold excess. The following applies: protein: recombinant; tags: N-terminal GST; label: 5'Cy5 (probe).
As to B3, the dissociation constant Kd stood at 7 µM.

As to B4, the Kd came to 5 µM.

The target of a further series is T1, gTBP (GST-gTBP). The series can be described thus: competition; vs H2B-b probe; less well than H2B S1; 10 mM Tris-HCl pH 8.0, 0.15 M NaCl, 0.5 mM TCEP, 5% glycerol, 1 ug/ul BSA, 15 ng/ul salmon sperm DNA, 30 min on ice; probe 0.1 pmol/ul, competitor 200-fold excess. The following applies: protein: recombinant; tags: N-terminal GST.
As for B5, the binding result is “binds”.

Another series has as its target T1, gTBP (GST-gTBP). As to the kind of experiment: EMSA; A complex; total binding, Hill fit; 10 mM Tris-HCl pH 8.0, 0.15 M NaCl, 0.5 mM TCEP, 5% glycerol, 1 ug/ul BSA, 15 ng/ul salmon sperm DNA, 30 min on ice; probe 0.1 pmol/ul, competitor 200-fold excess. To be noted: protein: recombinant; tags: N-terminal GST; label: 5'Cy5. In general terms: Mobility shift assays separate free from complexed probe on a gel.
Turning to B6, the Kd came out at 500 µM.

Consider B7, for which the dissociation constant Kd is 7200 µM.

A further series concerns the target T1, gTBP (GST-gTBP). As to the kind of experiment: competition; vs H2B-b probe; 10 mM Tris-HCl pH 8.0, 0.15 M NaCl, 0.5 mM TCEP, 5% glycerol, 1 ug/ul BSA, 15 ng/ul salmon sperm DNA, 30 min on ice; probe 0.1 pmol/ul, competitor 200-fold excess. The following applies: protein: recombinant; tags: N-terminal GST.
As to B8, the binding result is recorded as “no binding”.

Regarding B9, the binding result is reported as “binds”.

Regarding ATTTCTTTCCCGCCCGCTTTTTCCCCCCTT (ssDNA) [H2B L], the binding result is on record as “binds”.

In another series the target is T1, gTBP (GST-gTBP). The series can be described thus: competition; vs H4-b and H2B-b probes; 10 mM Tris-HCl pH 8.0, 0.15 M NaCl, 0.5 mM TCEP, 5% glycerol, 1 ug/ul BSA, 15 ng/ul salmon sperm DNA, 30 min on ice; probe 0.1 pmol/ul, competitor 200-fold excess. The following applies: protein: recombinant; tags: N-terminal GST.
Regarding AAAATTATACCTATGCCGCCGCACTCAAAA (ssDNA) [dn 14], the binding result is “binds”.

As to AAAAAAAAAAAAAAAAAAAAAAAAAAAAAA (ssDNA) [dn 1], the binding result is listed as “no binding”.

As for TTTTTTTTTTTTTTTTTTTTTTTTTTTTTT (ssDNA) [polyT(30)], the binding result is reported as “binds”.

On to AAAACTCCTCCCTTCCCGTTCTTCCCAAAA (ssDNA) [dn 12], for which the binding result is listed as “binds”.

As for AAAACTCCTCCCTTCCCTTTCTTCCCAAAA (ssDNA) [dn 13], the binding result was “binds”.

AAAAAAAAAAAAAAAAAAAAAAAAAAAAAA (ssDNA) [polyA(30)]: the binding result was “no binding”.

For the molecule AAAACTCCTCCCTTGCCGCCGTTCCCAAAA (ssDNA) [dn 8], the binding result is recorded as “binds”.

In the case of AAAAATTATACCTATGCCGCACTCAAAAAA (ssDNA) [dn 15], the binding result is listed as “binds”.

The Kd is a measure of binding affinity in units of concentration.

(Values after paper PMC12209930, “A TATA-box-binding protein binds single-stranded DNA in two modes: To poly(G) tracts and to flexible DNA regions”.)
